Measured values from publication PMC3245711.

Molecular target: human KCNJ12 channel (pND-CTFH construct, C-terminal FLAG and octa-histidine tags) (human) (UniProt Q14500)
Assay: SEC

Sequence of human KCNJ12 channel (pND-CTFH construct, C-terminal FLAG and octa-histidine tags) (Q14500 whole entry): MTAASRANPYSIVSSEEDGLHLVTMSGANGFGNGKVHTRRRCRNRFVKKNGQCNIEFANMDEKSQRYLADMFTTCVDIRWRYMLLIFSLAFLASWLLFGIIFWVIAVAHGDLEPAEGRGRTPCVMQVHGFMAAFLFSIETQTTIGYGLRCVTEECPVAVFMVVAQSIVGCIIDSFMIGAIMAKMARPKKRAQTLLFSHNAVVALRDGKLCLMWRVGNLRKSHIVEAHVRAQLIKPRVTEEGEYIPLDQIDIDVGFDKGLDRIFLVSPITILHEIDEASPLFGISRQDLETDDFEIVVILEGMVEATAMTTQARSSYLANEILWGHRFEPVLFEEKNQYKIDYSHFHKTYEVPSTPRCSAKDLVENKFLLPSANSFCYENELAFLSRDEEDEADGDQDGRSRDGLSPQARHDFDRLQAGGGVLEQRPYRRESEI

stoichiometry N: 4
Substance: human KCNJ12 channel (pND-CTFH construct, C-terminal FLAG and octa-histidine tags) (from UniProt Q14500 1-433) (natural protein)
